Reference: patent US20210317419

Target: T1, D-proline reductase PrdA protein derived from Peptoclostridium difficile 630, with 6X histidine tags at both termini (H6-prdA-H6)
T1 chain: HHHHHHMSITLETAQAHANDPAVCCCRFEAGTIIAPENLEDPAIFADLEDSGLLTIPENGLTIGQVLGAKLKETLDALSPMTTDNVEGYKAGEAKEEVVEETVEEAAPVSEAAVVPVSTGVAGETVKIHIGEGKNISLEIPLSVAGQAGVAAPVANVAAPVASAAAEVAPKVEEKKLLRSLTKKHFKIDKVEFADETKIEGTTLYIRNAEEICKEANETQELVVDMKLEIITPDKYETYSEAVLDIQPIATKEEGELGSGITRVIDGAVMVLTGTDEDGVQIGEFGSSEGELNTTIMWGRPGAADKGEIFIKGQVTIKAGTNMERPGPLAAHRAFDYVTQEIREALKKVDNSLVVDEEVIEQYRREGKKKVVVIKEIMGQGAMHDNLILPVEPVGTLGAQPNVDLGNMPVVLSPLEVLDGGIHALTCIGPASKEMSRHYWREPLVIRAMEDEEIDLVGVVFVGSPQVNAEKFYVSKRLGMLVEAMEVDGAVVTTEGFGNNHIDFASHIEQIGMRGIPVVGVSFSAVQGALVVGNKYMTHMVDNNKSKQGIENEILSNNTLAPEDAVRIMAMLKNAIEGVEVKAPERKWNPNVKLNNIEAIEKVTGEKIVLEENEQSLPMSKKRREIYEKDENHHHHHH

B1: D-proline reductase PrdB protein derived from Peptoclostridium difficile 630, with a 6X histidine tag at the carboxyl terminus (prdB-H6) (protein)
chain: MSLTTVQGLQSEIFVPITPPPVWTPVTKELKDMTIALATAAGVHLKSDKRFNLAGDTTFRAIPNTATVDEMMVSHGGYDNGDVNKDINCMFPIDRLHELAAEGFIKGVAPMHYAFMGGGGNQHVFTEETGPAIAAKLKEEGVDGVVMTAGGTCHRTAVIVQRAIEEAGIPTIIIAALPPVVRQNGTPRAVAPLVPMGANAGEPHNIEMQTHILRDTLEQLVAIPSAGKIVPLPYEYKAHVHHHHHH
  self-cleavage of PrdA protein (Western blot of lysates of co-expressing E. coli): PrdH protein and PrdB protein must exist at the same time to induce self-cleavage of PrdA protein
